Measurements reported in paper PMC10235760.

Biological target: SARS-CoV-2 receptor binding domain, omicron subvariant BA5 (RBDBA5) (UniProt P0DTC2)
Assay: SPR

Row | Substance | ratio to parent | Kd [pM]
1 | antibody 10-40 H:G27S | 0.79 | –
2 | antibody 10-40 H:R100bI | 3.83 | 69.5
3 | antibody 10-40 H:R100bI; H:S32H | 130 | 2.05
4 | antibody 10-40 H:R100bI; H:S32H; L:Q53F | – | 0.05
5 | antibody 10-40 H:R100bL | 1.72 | 155
6 | antibody 10-40 H:S98R | 0.26 | –
7 | antibody 10-40 L:D51W | 0.5 | –
8 | antibody 10-40 L:Q53F | 1.42 | 188
